According to patent US20130184211A1 (NEW YORK UNIVERSITY, published 2013):

Target: T1, complex of V5-tagged FGFR3c and FLAG-tagged membrane-spanning murine Klotho isolated from transfected … (murine, UniProt O35082 35-1014)
T1 construct: Isolated from cell lysate on anti-V5 agarose beads; also called FGFR3c-Klotho complex; binary FGFR-Klotho complex; not shown: FGFR3c, V5-tagged, expressed from a vector in HEK293-Klotho cells
Experiment: co-immunoprecipitation competition; competitor FGF23^28-251
Source text: Co-immunoprecipitation may also be used to determine that an agent specifically binds the binary FGFR-Klotho complex. One aspect of the present invention utilizes co-immunoprecipitation studies. Subconfluent cultures of a HEK293 cell line ectopically expressing the FLAG-tagged membrane-spanning form of murine Klotho were transfected with expression vectors for V5-tagged FGFR1c, FGFR3c, or FGFR4. Two days later, the cells were lysed, and FGFR-Klotho complexes were isolated from cell lysate using anti-V5 agarose beads. The beads were then incubated with either FGF23¹⁸⁰⁻²⁵¹ or FGF23²⁸⁻²⁵¹ alone, or with mixtures of FGF23²⁸⁻²⁵¹ with either increasing FGF23¹⁸⁰⁻²⁵¹ or increasing FGF23¹⁸⁰⁻²⁰⁵. Bead-bound proteins were resolved on SDS-polyacrylamide gels, transferred to nitrocellulose membranes, and labeled using antibodies to Klotho, FGF23, and V5 epitope tag.

T1 sequence (O35082 35-1014, one chain of several): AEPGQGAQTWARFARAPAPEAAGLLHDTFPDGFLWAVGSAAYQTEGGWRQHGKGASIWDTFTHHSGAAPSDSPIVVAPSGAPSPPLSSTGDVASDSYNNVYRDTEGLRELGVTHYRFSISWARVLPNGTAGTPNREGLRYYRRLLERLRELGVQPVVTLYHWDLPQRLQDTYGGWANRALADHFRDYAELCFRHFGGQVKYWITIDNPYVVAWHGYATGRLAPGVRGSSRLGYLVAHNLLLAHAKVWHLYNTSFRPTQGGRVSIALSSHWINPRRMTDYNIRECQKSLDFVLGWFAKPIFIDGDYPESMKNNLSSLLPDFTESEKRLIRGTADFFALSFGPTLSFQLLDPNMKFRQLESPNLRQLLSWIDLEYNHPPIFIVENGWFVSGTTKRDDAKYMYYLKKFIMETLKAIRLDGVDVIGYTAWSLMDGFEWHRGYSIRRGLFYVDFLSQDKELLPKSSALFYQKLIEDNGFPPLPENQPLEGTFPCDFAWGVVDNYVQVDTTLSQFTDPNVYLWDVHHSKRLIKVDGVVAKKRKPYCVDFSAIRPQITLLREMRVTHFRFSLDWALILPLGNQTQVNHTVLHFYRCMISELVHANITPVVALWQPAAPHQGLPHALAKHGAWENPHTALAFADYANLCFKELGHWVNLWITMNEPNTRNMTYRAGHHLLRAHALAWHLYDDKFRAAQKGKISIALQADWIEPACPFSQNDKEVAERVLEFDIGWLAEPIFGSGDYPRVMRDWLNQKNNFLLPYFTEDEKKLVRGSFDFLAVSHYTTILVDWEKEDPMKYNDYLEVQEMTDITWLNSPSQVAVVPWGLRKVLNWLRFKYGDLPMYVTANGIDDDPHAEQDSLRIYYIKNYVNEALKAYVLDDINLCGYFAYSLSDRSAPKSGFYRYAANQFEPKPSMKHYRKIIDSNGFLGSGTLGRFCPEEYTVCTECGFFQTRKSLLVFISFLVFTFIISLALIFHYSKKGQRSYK

B1: FGF23 C-terminal region peptide (S180 to S205), FGF23^180-205 (peptide)
peptide: SAEDDSERDPLNVLKPRARMTPAPAS
notes: Made by solid phase synthesis (GenScript)
- fold reduced potency compared to the FGF23^180-251 peptide: > 100 fold
